Measurements reported in patent US20240116985A1, “STAPLED PEPTIDES AND METHODS THEREOF” (priority 2020, published 2024).
Starred links: 1 amine or outer side, 2 acyl side, 3 side chain; linkers in the order of their positions; H or OH if unused. Positions of bridges follow the written chain, without caps; N, C: chain ends. Non-standard residues stand in square brackets, D forms with d. Primed or numbered codes have the meaning given here. PyrS2″ = (S)-3-amino-1-((pent-4-en-1-yloxy)carbonyl)pyrrolidine-3-carboxylic acid (stapling residue), C=CCCCOC(=O)N1CC[C@@](N[*:1])(C(=O)[*:2])C1; B5(18) = 2,2-bis(4-pentenyl)glycine (2-amino-2-(pent-4-en-1-yl)hept-6-enoic acid), stitching residue, C=CCCCC(CCCC=C)(N[*:1])C(=O)[*:2]; B5(4) = 2,2-bis(4-pentenyl)glycine = 2-amino-2-(pent-4-en-1-yl)hept-6-enoic acid (stitching residue), C=CCCCC(CCCC=C)(N[*:1])C(=O)[*:2]; B5(5) = 2,2-bis(4-pentenyl)glycine, 2-amino-2-(pent-4-en-1-yl)hept-6-enoic acid (stitching residue), C=CCCCC(CCCC=C)(N[*:1])C(=O)[*:2]; TfeGA = (S)-2-amino-3-((carboxymethyl)(2,2,2-trifluoroethyl)amino)propanoic acid, O=C([C@H](CN(CC(=O)[*:3])CC(F)(F)F)N[*:1])[*:2]; B5(3) = 2,2-bis(4-pentenyl)glycine (stitching residue), C=CCCCC(CCCC=C)(N[*:1])C(=O)[*:2]; Phe(3-COOH) = N[C@@H](Cc1cccc(C(=O)O)c1)C(=O)O; Phe(2-Cl) = N[C@@H](Cc1ccccc1Cl)C(=O)O; Bta = N[C@@H](Cc1csc2ccccc12)C(=O)O; αAllylPro = C=CC[C@@]1(C(=O)O)CCCN1; tBuAla = CC(C)(C)C[C@H](N)C(=O)O; 3Thi = N[C@@H](Cc1ccsc1)C(=O)O

Target: full-length beta-Catenin (Uniprot ID P35222) (Homo sapiens (Human)) (UniProt P35222)
Assay: fluorescence polarization competition; 10 nM full-length beta-catenin + 10 nM 5FAM-TCF4(10-53) probe
Target sequence in this assay (P35222 whole entry): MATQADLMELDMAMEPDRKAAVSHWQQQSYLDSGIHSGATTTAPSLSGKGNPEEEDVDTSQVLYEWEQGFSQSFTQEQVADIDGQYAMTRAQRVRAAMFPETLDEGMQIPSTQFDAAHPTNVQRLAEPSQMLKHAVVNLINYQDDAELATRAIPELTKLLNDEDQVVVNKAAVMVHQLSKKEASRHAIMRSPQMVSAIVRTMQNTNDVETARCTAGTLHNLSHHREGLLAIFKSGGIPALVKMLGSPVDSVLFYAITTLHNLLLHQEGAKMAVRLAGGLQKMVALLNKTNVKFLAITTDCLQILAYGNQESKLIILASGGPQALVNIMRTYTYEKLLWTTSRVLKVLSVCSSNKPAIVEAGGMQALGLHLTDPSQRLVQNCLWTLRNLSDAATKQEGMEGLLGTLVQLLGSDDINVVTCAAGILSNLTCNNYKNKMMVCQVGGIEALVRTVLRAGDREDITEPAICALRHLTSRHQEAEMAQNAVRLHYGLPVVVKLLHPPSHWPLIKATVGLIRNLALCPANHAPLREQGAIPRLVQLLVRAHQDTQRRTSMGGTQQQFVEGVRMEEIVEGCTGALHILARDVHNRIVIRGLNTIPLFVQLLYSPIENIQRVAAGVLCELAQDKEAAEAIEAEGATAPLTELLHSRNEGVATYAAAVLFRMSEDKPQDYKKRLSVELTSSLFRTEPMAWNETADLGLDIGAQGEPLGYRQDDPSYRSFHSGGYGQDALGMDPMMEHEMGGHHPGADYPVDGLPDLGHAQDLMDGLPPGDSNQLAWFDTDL

| IC50 | Binder |
| --- | --- |
| 8 nM | Ac-[αAllylPro]D[tBuAla][B5(5)]DDAAFT[PyrS2″][Phe(2-Cl)][Bta]Q-NH2 (staple 1-4, 4-11) [I-1013] |
| 5 nM | Ac-[αAllylPro]D[tBuAla][B5(5)]D[TfeGA]AKFN[PyrS2″][Phe(2-Cl)][Bta]Q-NH2 (staple 1-4, 4-11) [I-1006] |
| 38 nM | Ac-[αAllylPro]D[tBuAla][B5(5)]D[TfeGA]AFFN[PyrS2″][Phe(2-Cl)][Bta]Q-NH2 (staple 1-4, 4-11) [I-1003] |
| 42 nM | Ac-[αAllylPro]D[tBuAla][B5(5)]D[TfeGA]AIFN[PyrS2″][Phe(2-Cl)][Bta]Q-NH2 (staple 1-4, 4-11) [I-1005] |
| 26 nM | Ac-[αAllylPro]D[tBuAla][B5(5)]DNAAFS[PyrS2″][Phe(2-Cl)][Bta]Q-NH2 (staple 1-4, 4-11) [I-1018] |
| 19 nM | Ac-[αAllylPro]D[tBuAla][B5(5)]DNAAFT[PyrS2″][Phe(2-Cl)][Bta]Q-NH2 (staple 1-4, 4-11) [I-1014] |
| 7220 nM | Ac-[αAllylPro]D[tBuAla][B5(3)][3Thi][TfeGA]AAFN[PyrS2″]D[Bta]Q-NH2 (staple 1-4, 4-11) [I-1001] |

Target: full-length beta-Catenin (Uniprot ID P35222) (Homo sapiens (Human)) (UniProt P35222)
Assay: fluorescence polarization competition; full-length beta-catenin, competitor probe 5FAM-TCF4(10-53)
Target sequence in this assay (P35222 2-781 limits assumed): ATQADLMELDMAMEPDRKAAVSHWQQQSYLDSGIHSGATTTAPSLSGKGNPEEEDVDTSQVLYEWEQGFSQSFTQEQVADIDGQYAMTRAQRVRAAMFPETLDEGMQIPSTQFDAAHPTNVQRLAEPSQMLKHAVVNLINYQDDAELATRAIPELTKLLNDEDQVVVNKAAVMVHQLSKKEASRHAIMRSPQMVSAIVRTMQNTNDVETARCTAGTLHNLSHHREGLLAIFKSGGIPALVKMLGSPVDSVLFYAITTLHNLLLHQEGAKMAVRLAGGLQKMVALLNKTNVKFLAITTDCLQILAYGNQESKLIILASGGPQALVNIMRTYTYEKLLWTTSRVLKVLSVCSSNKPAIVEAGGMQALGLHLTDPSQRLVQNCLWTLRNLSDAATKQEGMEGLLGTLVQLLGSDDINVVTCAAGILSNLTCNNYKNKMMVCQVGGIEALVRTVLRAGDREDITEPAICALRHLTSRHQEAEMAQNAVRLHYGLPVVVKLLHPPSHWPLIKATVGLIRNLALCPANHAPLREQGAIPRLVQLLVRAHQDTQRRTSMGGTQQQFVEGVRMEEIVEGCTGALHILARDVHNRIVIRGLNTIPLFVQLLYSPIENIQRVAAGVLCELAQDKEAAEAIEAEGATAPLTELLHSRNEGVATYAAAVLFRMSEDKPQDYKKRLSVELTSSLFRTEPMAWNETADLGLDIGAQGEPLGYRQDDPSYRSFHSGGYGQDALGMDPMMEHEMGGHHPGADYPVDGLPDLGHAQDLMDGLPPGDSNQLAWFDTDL

| IC50 | Binder |
| --- | --- |
| 87 nM | Ac-[αAllylPro]D[tBuAla][B5(3)]D[TfeGA]AAFF[PyrS2″]Y[Bta]Q-NH2 (staple 1-4, 4-11) [I-989] |
| 112 nM | Ac-[αAllylPro]D[tBuAla][B5(4)]D[Phe(3-COOH)]AAFS[PyrS2″][3Thi][Bta]Q-NH2 (staple 1-4, 4-11; also: earlier eluting HPLC staple isomer) [I-978] |
| 118 nM | Ac-[αAllylPro]D[tBuAla][B5(3)]D[Phe(3-COOH)]AAFF[PyrS2″][3Thi][Bta]S-NH2 (staple 1-4, 4-11; also: later eluting HPLC peak (staple isomer)) [I-983] |
| 221 nM | Ac-[αAllylPro]D[tBuAla][B5(4)]D[Phe(3-COOH)]AAFT[PyrS2″][3Thi][Bta]Q-NH2 (staple 1-4, 4-11; also: earlier eluting HPLC staple isomer) [I-980] |
| 430 nM | Ac-[αAllylPro]D[tBuAla][B5(3)]D[Phe(3-COOH)]AAFS[PyrS2″][3Thi][Bta]S-NH2 (staple 1-4, 4-11; also: later eluting HPLC peak (staple isomer)) [I-985] |
| 179 nM | Ac-[αAllylPro]D[tBuAla][B5(3)]D[Phe(3-COOH)]AAFS[PyrS2″][3Thi][Bta]S-NH2 (staple 1-4, 4-11; also: earlier eluting HPLC peak (staple isomer)) [I-984] |
| 240 nM | Ac-[αAllylPro]D[tBuAla][B5(4)]D[Phe(3-COOH)]AAFS[PyrS2″][3Thi][Bta]Q-NH2 (staple 1-4, 4-11; also: later eluting HPLC staple isomer) [I-979] |

Target: full-length beta-Catenin (Uniprot ID P35222) (Homo sapiens (Human)) (UniProt P35222)
Assay: fluorescence polarization competition; displaces 5FAM-TCF4(10-53) from full-length beta-catenin
Target sequence in this assay (P35222 2-781 limits assumed): as above

| EC50 | Binder |
| --- | --- |
| 8 nM | Ac-[αAllylPro]D[tBuAla][B5(5)]DDAAFT[PyrS2″][Phe(2-Cl)][Bta]Q-NH2 (staple 1-4, 4-11) [I-1013] |
| 5 nM | Ac-[αAllylPro]D[tBuAla][B5(5)]D[TfeGA]AKFN[PyrS2″][Phe(2-Cl)][Bta]Q-NH2 (staple 1-4, 4-11) [I-1006] |
| 38 nM | Ac-[αAllylPro]D[tBuAla][B5(5)]D[TfeGA]AFFN[PyrS2″][Phe(2-Cl)][Bta]Q-NH2 (staple 1-4, 4-11) [I-1003] |
| 42 nM | Ac-[αAllylPro]D[tBuAla][B5(5)]D[TfeGA]AIFN[PyrS2″][Phe(2-Cl)][Bta]Q-NH2 (staple 1-4, 4-11) [I-1005] |
| 26 nM | Ac-[αAllylPro]D[tBuAla][B5(5)]DNAAFS[PyrS2″][Phe(2-Cl)][Bta]Q-NH2 (staple 1-4, 4-11) [I-1018] |
| 19 nM | Ac-[αAllylPro]D[tBuAla][B5(5)]DNAAFT[PyrS2″][Phe(2-Cl)][Bta]Q-NH2 (staple 1-4, 4-11) [I-1014] |
| 5530 nM | Ac-[αAllylPro]D[tBuAla][B5(3)][3Thi][TfeGA]AAFN[PyrS2″]D[Bta]Q-NH2 (staple 1-4, 4-11) [I-1001] |

Target: full-length beta-Catenin (Uniprot ID P35222) (Homo sapiens (Human)) (UniProt P35222)
Assay: fluorescence polarization competition; full-length beta-catenin with 5FAM-labeled TCF4 (10-53) probe as competitor
Target sequence in this assay (P35222 whole entry): as the sequence (P35222 whole entry) above

| EC50 | Binder |
| --- | --- |
| 87 nM | Ac-[αAllylPro]D[tBuAla][B5(3)]D[TfeGA]AAFF[PyrS2″]Y[Bta]Q-NH2 (staple 1-4, 4-11) [I-989] |
| 112 nM | Ac-[αAllylPro]D[tBuAla][B5(4)]D[Phe(3-COOH)]AAFS[PyrS2″][3Thi][Bta]Q-NH2 (staple 1-4, 4-11; also: earlier eluting HPLC staple isomer) [I-978] |
| 118 nM | Ac-[αAllylPro]D[tBuAla][B5(3)]D[Phe(3-COOH)]AAFF[PyrS2″][3Thi][Bta]S-NH2 (staple 1-4, 4-11; also: later eluting HPLC peak (staple isomer)) [I-983] |
| 221 nM | Ac-[αAllylPro]D[tBuAla][B5(4)]D[Phe(3-COOH)]AAFT[PyrS2″][3Thi][Bta]Q-NH2 (staple 1-4, 4-11; also: earlier eluting HPLC staple isomer) [I-980] |
| 301 nM | Ac-[αAllylPro]D[tBuAla][B5(3)]D[Phe(3-COOH)]AAFS[PyrS2″][3Thi][Bta]S-NH2 (staple 1-4, 4-11; also: later eluting HPLC peak (staple isomer)) [I-985] |
| 179 nM | Ac-[αAllylPro]D[tBuAla][B5(3)]D[Phe(3-COOH)]AAFS[PyrS2″][3Thi][Bta]S-NH2 (staple 1-4, 4-11; also: earlier eluting HPLC peak (staple isomer)) [I-984] |
| 240 nM | Ac-[αAllylPro]D[tBuAla][B5(4)]D[Phe(3-COOH)]AAFS[PyrS2″][3Thi][Bta]Q-NH2 (staple 1-4, 4-11; also: later eluting HPLC staple isomer) [I-979] |
